Laboratory results from article PMC9051087.
Values joined by “and” are separate entries in the source; they are usually repeats but may differ in a detail not shown here. Identical values can stand only once. Blank lines part the entries; values can stand above or below the substance they belong to.

Columns and labels:
[1] = biological target: PbHARP A118E/A121E mutant (Planctomycetes bacterium GWF2_40_8); assay: SEC; PbHARP wild type and mutants; Superdex 200 Increase 10/300 GL, 20 mM Tris-HCl pH 8.0, 300–500 mM salt for the wild type (it precipitates at lower salt); 300 ug protein, 0.4 mL/min
[2] = biological target: Thermococcus celer HARP (Thermococcus celer); assay: SEC; TcHARP at higher salt (200–500 mM); Superdex 200 Increase 10/300 GL, 20 mM Tris-HCl pH 8.0
[3] = biological target: Planctomycetes bacterium HARP (homolog of Aquifex RNase P) (Planctomycetes bacterium GWF2_40_8); assay: cross-linking; BS3 (0, 0.01, 0.03 mM), 25 °C 1 h, 37.6 uM PbHARP without or with 45.1 uM His-7bp pre-tRNA and 10 mM CaCl2; 20 mM HEPES pH 7.9, 500 mM NaCl; SDS-PAGE
[4] = biological target: Planctomycetes bacterium HARP (homolog of Aquifex RNase P) (Planctomycetes bacterium GWF2_40_8); assay: SEC; PbHARP wild type and mutants; Superdex 200 Increase 10/300 GL, 20 mM Tris-HCl pH 8.0, 300–500 mM salt for the wild type (it precipitates at lower salt); 300 ug protein, 0.4 mL/min

stoichiometry N [1]: 2
Substance: PbHARP A118E/A121E mutant (enzyme)

stoichiometry N [2]: 2
Substance: Thermococcus celer HARP (enzyme)

stoichiometry N [3]: 2 and 4 | stoichiometry N [4]: 2
Substance: Planctomycetes bacterium HARP (homolog of Aquifex RNase P) (enzyme)
